From patent US20200317753A1 (LIFEARC, published 2020) come the findings set out here.

Read-outs that look alike come from different tables or passages of the source.

Assay [1] deals with T1, EV71-VLP (virus-like particle) (Enterovirus 71).
T1 construct: Particle of several capsid proteins
Kind of assay: Bio-Layer Interferometry, steady state plot (apparent KD). (In BLI a coated tip is dipped into the sample, and binding shifts an interference pattern.)

Assay [2] concerns the target T2, SP70 peptide epitope of the EV71 VP1 capsid protein (Enterovirus 71).
T2 construct: 15-amino acid peptide; residues 208-222 counted on VP1
T2 peptide: YPTFGEHKQEKDLEY
Kind of assay: binding ELISA on SP70 peptide, absorbance at 450 nm. Background: An ELISA detects its analyte on a solid surface through an enzyme-linked reagent.

The target in assay [3] is T1, EV71-VLP (virus-like particle). The assay can be described thus: binding ELISA on EV71-VLP, absorbance at 450 nm.
Assay [4] addresses T2, SP70 peptide epitope of the EV71 VP1 …. Kind of assay: isothermal titration calorimetry, observed KA. (ITC needs no label: the signal is the heat of the interaction.)
Excerpt: (§1) KD can be calculated using Gibbs free energy, enthalpy and entropy: ΔG=ΔH−TΔS and ΔG=RT In KD.
For assay [5] the target is unchanged. The assay can be described thus: isothermal titration calorimetry.
The target is the same in assay [6]. The assay can be described thus: isothermal titration calorimetry, observed KD.
Excerpt: as §1
The target is the same in assay [7]. Kind of assay: binding ELISA on SP70 peptide, absorbance at 450 nm.
In assay [8] the target is T1, EV71-VLP (virus-like particle). Kind of assay: binding ELISA on EV71-VLP, absorbance at 450 nm. This is another data set of the same source.
Assay [9] has as its target T2, SP70 peptide epitope of the EV71 VP1 …. Kind of assay: binding ELISA on SP70 peptide, OD 650 nm.
Description: (§2) Serial dilutions of antibody variants (starting from ˜100 −g/ml) were added to immobilised EV71-VLP or the SP70 peptide epitope, shaken for one hour at room temperature and washed with PBS-T. Anti-human kappa chain HRP was added and the incubation and washing steps were repeated. TMB/K-Blue substrate was incubated with the reaction for 5-10 minutes at room temperature before the reaction was stopped with H₂SO₄ RED STOP. The optical density was read at 450/650 nm.
For assay [10] the target is unchanged. Kind of assay: isothermal titration calorimetry (observed KD); the text paragraph 208 prints 17.1 nM.
Assay [11] shares this target. Kind of assay: binding ELISA on SP70 peptide, OD 650 nm [upper panel].
Description: as §2
Assay [12] shares this target. Kind of assay: binding ELISA on SP70 peptide, OD 650 nm.
Description: as §2

B1: murine D5 antibody (antibody, V domains shown)
VH: EVQLQQSGAELVKPGASVKLSCTASGFNIKDTYIHWVKQRPEQGLEWIGKIDPANGNTKYDPKFQDKATITADTSSNTAYLQLSSLTSEDTAVYYCANSNYWFDFDYWGQGTTLTVSS
VL: DVLMTQTPLSLPVSLGDQASISCRSSQSIVHSNGNTYLEWYLQKPGQSPKLLIYKVSNRFSGVPDRFSGSGSGTDFTLKISRVEADDVGVYYCYQGSHVPYTFGGGTKLEIK
notes: Mouse monoclonal IgG1 (label mD5 IgG1); also called mD5; mouse D5
The EC50 is the concentration that produces a half-maximal response. Lower therefore signals higher potency in that assay. Turning to B1, the Kd in assay [1] is 1.8 nM. In addition, the values for the concentration giving a half-maximal response (EC50) in [2] and in [3] were 0.3 nM and 12.7 nM, respectively.

B2: chimeric D5 antibody (antibody, V domains shown)
VH: EVQLQQSGAELVKPGASVKLSCTASGFNIKDTYIHWVKQRPEQGLEWIGKIDPANGNTKYDPKFQDKATITADTSSNTAYLQLSSLTSEDTAVYYCANSNYWFDFDYWGQGTTLTVSS
VL: DVLMTQTPLSLPVSLGDQASISCRSSQSIVHSNGNTYLEWYLQKPGQSPKLLIYKVSNRFSGVPDRFSGSGSGTDFTLKISRVEADDVGVYYCYQGSHVPYTFGGGTKLEIK
notes: Human constant regions and murine D5 variable regions, expressed in Expi293 cells; also called chD5; cD5 CHCK
B2 displayed a Ka in assay [4] of 5.66e+07 M⁻¹. Also, the ΔH in [5] was -12.8 kcal/mol. The ΔS in assay [5] was -7.63 cal/mol/deg. Besides, the Kd in [1] stood at 0.2 nM; in assay [6], 17.1 nM; in assay [10], 17.7 nM. Moreover, the concentration giving a half-maximal response (EC50) was determined as 6.7 nM in assay [7], 1.6 nM in assay [8] and 1.4 nM in assay [9].

B3: hEV71 HAKA (antibody, V domains shown)
VH: QVQLVQSGAEVKKPGASVKVSCKASGYTFTDTYIHWVRQAPGQRLEWIGKIDPANGNTKYDPKFQDRVTITRDTSASTAYMELSSLRSEDTAVYYCASSNYWFDFDYWGQGTLVTVSS
VL: DIVMTQSPLSLPVTPGEPASISCRSSQSIVHSNGNTYLEWYLQKPGQSPQLLIYKVSNRFSGVPDRFSGSGSGTDFTLKISRVEAEDVGVYYCYQGSHVPYTFGGGTKVEIK
notes: Variable domains only; cloned into pHuG1 and pHuK (human IgG / kappa) vectors, expressed in Expi293 cells
B3: the binding result in assay [11] is on record as “binds”.

B4: hEV71 HNKA (antibody, V domains shown)
VH: QVQLVQSGAEVKKPGASVKVSCKASGFNIKDTYIHWVKQAPGQRLEWIGKIDPANGNTKYDPKFQDKATITADTSASTAYMELSSLRSEDTAVYYCANSNYWFDFDYWGQGTLVTVSS
VL: DIVMTQSPLSLPVTPGEPASISCRSSQSIVHSNGNTYLEWYLQKPGQSPQLLIYKVSNRFSGVPDRFSGSGSGTDFTLKISRVEAEDVGVYYCYQGSHVPYTFGGGTKVEIK
notes: Variable domains only
On to B4, for which the EC50 in assay [9] was found to be 1.35 nM.

B5: hEV71 HQKA (antibody, V domains shown)
VH: QVQLVQSGAEVKKPGASVKVSCTASGFNIKDTYIHWVKQAPGQRLEWIGKIDPANGNTKYDPKFQDKATITADTSANTAYMELSSLRSEDTAVYYCANSNYWFDFDYWGQGTLVTVSS
VL: DIVMTQSPLSLPVTPGEPASISCRSSQSIVHSNGNTYLEWYLQKPGQSPQLLIYKVSNRFSGVPDRFSGSGSGTDFTLKISRVEAEDVGVYYCYQGSHVPYTFGGGTKVEIK
notes: Variable domains only
Consider B5, for which the EC50 in [9] turned out to be 1.09 nM. The EC50 values of the last two molecules are within 1.5-fold of each other.

B6: hEV71 HGKA (antibody, V domains shown)
VH: QVQLVQSGAEVKKPGASVKVSCKASGYTFTDTYIHWVRQAPGQRLEWIGKIDPANGNTKYDPKFQDKVTITRDTSASTAYMELSSLRSEDTAVYYCASSNYWFDFDYWGQGTLVTVSS
VL: DIVMTQSPLSLPVTPGEPASISCRSSQSIVHSNGNTYLEWYLQKPGQSPQLLIYKVSNRFSGVPDRFSGSGSGTDFTLKISRVEAEDVGVYYCYQGSHVPYTFGGGTKVEIK
notes: Named only within the range hEV71 HCKA to hEV71 HJKA; Variable domains only
Turning to B6, in [12], the binding result is reported as “binds”.

B7: hEV71 HIKA (antibody, V domains shown)
VH: QVQLVQSGAEVKKPGASVKVSCKASGYTFTDTYIHWVRQAPGQRLEWIGKIDPANGNTKYDPKFQDRVTITADTSASTAYMELSSLRSEDTAVYYCASSNYWFDFDYWGQGTLVTVSS
VL: DIVMTQSPLSLPVTPGEPASISCRSSQSIVHSNGNTYLEWYLQKPGQSPQLLIYKVSNRFSGVPDRFSGSGSGTDFTLKISRVEAEDVGVYYCYQGSHVPYTFGGGTKVEIK
notes: as for B6
With B7, the binding result in assay [12] is listed as “binds”.

B8: hEV71 HBKA (antibody, V domains shown)
VH: QVQLVQSGAEVKKPGASVKVSCKASGFNIKDTYIHWVRQAPGQRLEWIGKIDPANGNTKYDPKFQDKATITADTSASTAYMELSSLRSEDTAVYYCANSNYWFDFDYWGQGTLVTVSS
VL: DIVMTQSPLSLPVTPGEPASISCRSSQSIVHSNGNTYLEWYLQKPGQSPQLLIYKVSNRFSGVPDRFSGSGSGTDFTLKISRVEAEDVGVYYCYQGSHVPYTFGGGTKVEIK
notes: Variable domains only; pHuG1 / pHuK vectors
Regarding B8, it took 1.62 nM to reach a half-maximal effect in [9] (EC50).

B9: hEV71 HDKA (antibody, V domains shown)
VH: QVQLVQSGAEVKKPGASVKVSCKASGYNFTDTYIHWVRQAPGQRLEWIGKIDPANGNTKYDPKFQDRVTITRDTSASTAYMELSSLRSEDTAVYYCASSNYWFDFDYWGQGTLVTVSS
VL: DIVMTQSPLSLPVTPGEPASISCRSSQSIVHSNGNTYLEWYLQKPGQSPQLLIYKVSNRFSGVPDRFSGSGSGTDFTLKISRVEAEDVGVYYCYQGSHVPYTFGGGTKVEIK
notes: Variable domains only
As to B9, the binding result in assay [12] is given as “binds”.

B10: hEV71 HJKA (antibody, V domains shown)
VH: QVQLVQSGAEVKKPGASVKVSCKASGYTFTDTYIHWVRQAPGQRLEWIGKIDPANGNTKYDPKFQDRVTITRDTSASTAYMELSSLRSEDTAVYYCANSNYWFDFDYWGQGTLVTVSS
VL: DIVMTQSPLSLPVTPGEPASISCRSSQSIVHSNGNTYLEWYLQKPGQSPQLLIYKVSNRFSGVPDRFSGSGSGTDFTLKISRVEAEDVGVYYCYQGSHVPYTFGGGTKVEIK
notes: as for B8
Take B10: the binding result in [12] is “binds”.

B11: hEV71 HPKA (antibody, V domains shown)
VH: QVQLVQSGAEVKKPGASVKVSCKASGYTFTDTYIHWVRQAPGQRLEWIGKIDPANGNTKYDPKFQDKVTITRDTSASTAYMELSSLRSEDTAVYYCANSNYWFDFDYWGQGTLVTVSS
VL: DIVMTQSPLSLPVTPGEPASISCRSSQSIVHSNGNTYLEWYLQKPGQSPQLLIYKVSNRFSGVPDRFSGSGSGTDFTLKISRVEAEDVGVYYCYQGSHVPYTFGGGTKVEIK
notes: Variable domains only
Turning to B11, the half-maximal effective concentration (EC50) in [9] turned out to be 67.7 nM.

B12: hEV71 HFKA (antibody, V domains shown)
VH: QVQLVQSGAEVKKPGASVKVSCKASGYTFKDTYIHWVRQAPGQRLEWIGKIDPANGNTKYDPKFQDRVTITRDTSASTAYMELSSLRSEDTAVYYCASSNYWFDFDYWGQGTLVTVSS
VL: DIVMTQSPLSLPVTPGEPASISCRSSQSIVHSNGNTYLEWYLQKPGQSPQLLIYKVSNRFSGVPDRFSGSGSGTDFTLKISRVEAEDVGVYYCYQGSHVPYTFGGGTKVEIK
notes: as for B6
On to B12, for which the binding result in assay [12] was “binds”.

B13: hEV71 HHKA (antibody, V domains shown)
VH: QVQLVQSGAEVKKPGASVKVSCKASGYTFTDTYIHWVRQAPGQRLEWIGKIDPANGNTKYDPKFQDRATITRDTSASTAYMELSSLRSEDTAVYYCASSNYWFDFDYWGQGTLVTVSS
VL: DIVMTQSPLSLPVTPGEPASISCRSSQSIVHSNGNTYLEWYLQKPGQSPQLLIYKVSNRFSGVPDRFSGSGSGTDFTLKISRVEAEDVGVYYCYQGSHVPYTFGGGTKVEIK
notes: as for B6
On to B13, for which the binding result in assay [12] is reported as “binds”.

B14: hEV71 HCKA (antibody, V domains shown)
VH: QVQLVQSGAEVKKPGASVKVSCKASGFTFTDTYIHWVRQAPGQRLEWIGKIDPANGNTKYDPKFQDRVTITRDTSASTAYMELSSLRSEDTAVYYCASSNYWFDFDYWGQGTLVTVSS
VL: DIVMTQSPLSLPVTPGEPASISCRSSQSIVHSNGNTYLEWYLQKPGQSPQLLIYKVSNRFSGVPDRFSGSGSGTDFTLKISRVEAEDVGVYYCYQGSHVPYTFGGGTKVEIK
notes: as for B8
Consider B14, for which the binding result in assay [12] was “binds”.

B15: hEV71 HEKA (antibody, V domains shown)
VH: QVQLVQSGAEVKKPGASVKVSCKASGYTITDTYIHWVRQAPGQRLEWIGKIDPANGNTKYDPKFQDRVTITRDTSASTAYMELSSLRSEDTAVYYCASSNYWFDFDYWGQGTLVTVSS
VL: DIVMTQSPLSLPVTPGEPASISCRSSQSIVHSNGNTYLEWYLQKPGQSPQLLIYKVSNRFSGVPDRFSGSGSGTDFTLKISRVEAEDVGVYYCYQGSHVPYTFGGGTKVEIK
notes: as for B6
For B15, in assay [12], the binding result is “binds”.

B16: hEV71 HAKB (antibody, V domains shown)
VH: QVQLVQSGAEVKKPGASVKVSCKASGYTFTDTYIHWVRQAPGQRLEWIGKIDPANGNTKYDPKFQDRVTITRDTSASTAYMELSSLRSEDTAVYYCASSNYWFDFDYWGQGTLVTVSS
VL: DVLMTQSPLSLPVTPGEPASISCRSSQSIVHSNGNTYLEWYLQKPGQSPQLLIYKVSNRFSGVPDRFSGSGSGTDFTLKISRVEAEDVGVYYCYQGSHVPYTFGGGTKVEIK
notes: as for B8
In the case of B16, in assay [11], the binding result is given as “binds”.
